Test results as given in PMC7985710.

Assays:
[1] = molecular target: R174C-SR-BI (human variant of scavenger receptor class B type I) (human) (UniProt Q8WTV0); experiment: radioligand binding; [^125I]-HDL binding: transfected COS-7 cells incubated with 10 μg/ml double-radiolabeled human HDL for 1.5 h at 4°C
[2] = molecular target: WT scavenger receptor class B type I (human SR-BI) (human) (UniProt Q8WTV0); experiment: as above
[3] = molecular target: Human HDL, double-radiolabeled; experiment: [125I]-HDL cell association on transfected COS-7 cells; conditions: COS-7 cells transiently expressing WT or mutant SR-BI; n = 3 independent transfections; empty vector bar est. 30 % of WT; parent: est. 100; read off a plot

| HDL binding, percent of WT-SR-BI [1] [%] | HDL binding (raw value) (ng/mg protein) [2] | percent of parent [3] | Substance |
| --- | --- | --- | --- |
| 31.3 | 22.7 |  | Human HDL, double-radiolabeled (complex) |
|  |  | 82 % of WT | WT scavenger receptor class B type I (human SR-BI) (from UniProt Q8WTV0-2) D185R |
|  |  | 44 % of WT | WT scavenger receptor class B type I (human SR-BI) (from UniProt Q8WTV0-2) R174D; D185R |
|  |  | 72 % of WT | WT scavenger receptor class B type I (human SR-BI) (from UniProt Q8WTV0-2) R174K |
